Reference: US12797409, “Heparan sulfate mimetics to improve glucose clearance” (THE REGENTS OF THE UNIVERSITY OF CALIFORNIA)

Columns and labels:
[1] = target: T1, Alpl (alkaline phosphatase) (Mus musculus, UniProt P09242 P09242:18-501); assay: flow; biotinylated aptamer alone on Ext1-/- mouse ES cells; cell-surface binding; conditions: tags: endogenous on Ext1-/- mouse embryonic stem cells; chain copies: 2; G4
T1 sequence: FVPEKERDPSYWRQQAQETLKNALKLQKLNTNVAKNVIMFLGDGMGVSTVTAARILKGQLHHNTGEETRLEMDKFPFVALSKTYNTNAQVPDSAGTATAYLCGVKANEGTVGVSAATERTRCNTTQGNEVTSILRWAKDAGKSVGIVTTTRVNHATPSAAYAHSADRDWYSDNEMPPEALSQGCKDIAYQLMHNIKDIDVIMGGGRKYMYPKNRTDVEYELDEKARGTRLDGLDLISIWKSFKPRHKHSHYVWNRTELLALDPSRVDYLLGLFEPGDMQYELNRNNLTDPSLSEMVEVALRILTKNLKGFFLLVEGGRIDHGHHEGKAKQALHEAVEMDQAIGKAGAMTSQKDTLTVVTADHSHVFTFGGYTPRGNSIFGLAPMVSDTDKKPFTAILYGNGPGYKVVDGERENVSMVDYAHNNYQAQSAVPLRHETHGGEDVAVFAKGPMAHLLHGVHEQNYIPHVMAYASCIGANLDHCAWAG

[2] = target: T1, Alpl (alkaline phosphatase); assay: flow; Ext1-/- mouse ES cells, 40 min in suspension, 0-200 nM; binding significantly reduced after 6 days of neural differentiation; conditions: tags: endogenous on Ext1-/- mouse embryonic stem cells; chain copies: 2; label: AF488 (on streptavidin); G4

B1: Aptamer 19S (ssDNA)
DNA: AGGTCAGATGAGGAGGGGGACTTAGGACTGGGTTTATGACCTATGCGTG
modifications: 5'-biotin
[1]
  EC50: ~107 nM

B2: Hep-SA-19S (heparin-streptavidin-aptamer 19S chimera) (ssDNA)
DNA: B1 DNA
modifications: 5'-biotin, bound to streptavidin carrying biotinylated heparin (1:1:1)
[2]
  EC50: 70 nM
